# According to the RNAGym collection of RNA variant scans (doi:10.1073/pnas.2313332121):
# Variants at the floor of the assay were thinned out.
# B1: TPR 5TU (parent)
# chain: GGAUCUUCUCGAUCUAACAAAAAAGACAAAUCUGCCACAAAGCUUGAGAGCAUCUUCGGAUGCAGAGGCGGCAGCCUUCGGUGGCGCGAUAGCGCCAACGUUCUCAACUAUGACACGCAAAACGCGUGCUCCGUUGAAUGGAGUUUAUCAUG
# Variants of: B1
# Assay: polymerase ribozyme fitness, log enrichment relative to wild type (log ratio); higher = more active; in vitro selection for triplet polymerase activity
# Outline: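 Mutant libraries were PCR-built and transcribed for each subunit of a heterodimeric triplet polymerase ribozyme and selected for one round in triplicate at −7 °C, frozen, before gel excision of extended constructs and streptavidin-bead capture. Input and output libraries were Illumina-sequenced, keeping genotypes with ≥10 input reads and ≥1 read per output. Fitness is a logarithmic ratio of genotype to wild-type enrichment, in base 2, using inverse-variance-weighted replicate averages.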
row,Variant,polymerase ribozyme fitness (log ratio)
1,A22U A91G,-3.05
2,A23U C27U U33G G42U G86U U101A G152A,≤ -4.2
3,A23G U90G C93A A107U,≤ -4.2
4,A21U G83A,-1.45
5,A21G C69G U82A C87U,-1.28
6,A21U G58C C76G C87U C105A A119U,≤ -4.2
7,A21U U53A A73C C76A G88A C114U U134A,≤ -4.2
8,A22G G59C C75G C108G A138G,≤ -4.2
9,A22C A39U U139A,≤ -4.2
10,A22G U109G,-0.357
11,A23G A41G U55A U90C C96G C99A,≤ -4.2
12,A23C A37C U53A A64C U90C C96G U101G,≤ -4.2
13,A22U U55A C57A C85G,-1.44
14,A21U C57A A107C U139C A147C,≤ -4.2
15,A23C G50U C76U C79A C85U C99G,≤ -4.2
16,A22U C93U,-1.47
17,A23C A110G U111A,≤ -4.2
18,A21G U56A,-0.198
19,A21U A49G G84U U145G,-2.57
20,A22U G152A,-2.39
21,A23G A41C U44C A49C G58C A64C C85U A138G,≤ -4.2
22,A22U G34A U55A G59C C95A C118G,-3.53
23,A23G A24U G58A A60G C85G U101A G128A U130C U144G,≤ -4.2
24,A23G G58A C87U A121C,-3.82

row,Variant,polymerase ribozyme fitness (log ratio)
1,A21G C32U G84U A115U U144C,≤ -4.2
2,A21U A29C A89C U130C G140U G141A,≤ -4.2
3,A23C U56A G81A U90A C95G G143U,≤ -4.2
4,A22U A24U G141U,1.41
5,A23G U134A,≤ -4.2
6,A23G C32G A52U C85A U102G U127G,≤ -4.2
7,A21U A26U A40U,-3.62
8,A22G C123A A147U,1.6
9,A22U A52C U55A G67U,≤ -4.2
10,A22U A49G A60G G83U G84U,-3.24
11,A22G U53A A66G C72G U90C U145G,≤ -4.2
12,A22U G124A,0.0485
13,A22C G70C,-4
14,A21U C35U U56A C96A A142U,-2.21
15,A21U A91U,≤ -4.2
16,A21U G92C,0.0736
17,A23U A39G A91C,≤ -4.2
18,A22U C32U A47U G83A C125U,≤ -4.2
19,A22C A60U A66U C93U G100C A138G C149A,≤ -4.2
20,A21U A60G G65C,-3.98
21,A23C U53A C57U C96G C103G,≤ -4.2
22,A23U A106G A138U,≤ -4.2
23,A21U G50A C63U C75U A97U,-1.25
24,A22C A60G C96G C114A C131G,≤ -4.2

row,Variant,polymerase ribozyme fitness (log ratio)
1,A22C C85G A150G,-2.71
2,A23G A49C G65C G80U G86U C99A,≤ -4.2
3,A22G G48A G62C G94A C116U,≤ -4.2
4,A23G U127G,≤ -4.2
5,A22G A23C G83A,≤ -4.2
6,A22U C54U G88C A106G U146A,≤ -4.2
7,A23U A73U G88C,≤ -4.2
8,A22C A30G A60G G68A C85A A91C G126A,≤ -4.2
9,A22U C85G,-1.73
10,A22U U45A C57U G58A G59U C87A,≤ -4.2
11,A22C G83U A115G,-1.96
12,A22G C32G U33G G94A A110C C116G,-4.15
13,A22U A89U C105U,0.731
14,A21U U33G G59C C72G A89C C96A A115C U146C,≤ -4.2
15,A22U A23U G70U C85U A89C A120G U144A,≤ -4.2
16,A22G C85A,-1.12
17,A22G G25U C38A A52G C96U,-2.43
18,A23C C54G A64G C125A U148C C149A A150U,≤ -4.2
19,A21U U45C C85A,-3.36
20,A22G U55A U61A G94U,-3.37
21,A22C G58A C72A C87G C125G G126U,≤ -4.2
22,A22U U53A,-1.05
23,A21U A41C G65A C85A,≤ -4.2
24,A21G C27G A29C A73C G74U C75G C85U G88A,≤ -4.2

row,Variant,polymerase ribozyme fitness (log ratio)
1,A23U C35A A60G G84C G86A C96A G140U,≤ -4.2
2,A22G C35G U44C U77G C87A C93G U111G,≤ -4.2
3,A22G G80A G86A C93A,-4.2
4,A21U C87A G117C A137C A142U,≤ -4.2
5,A23G A47C C103G A122G U145A,≤ -4.2
6,A21U C54A A142G,-2.81
7,A21U C38U C63G G84U,-0.36
8,A23G G94U U148C,≤ -4.2
9,A22C A40C G94A A119G,0.789
10,A21G G25C G34A G71U G100C A107U U109C A121U A150U,≤ -4.2
11,A22U U55G,-0.206
12,A23U A40U C51U U78G,≤ -4.2
13,A21U A28C G34U A39G,≤ -4.2
14,A23C A26C A52U C63A C131U G141U U145C,≤ -4.2
15,A23U G34A U53G G74A U139A,≤ -4.2
16,A21G C54U C96G C129A,-3.17
17,A21G G25U U56A C85U G94U C123U,-2.71
18,A22C C27U U127C,-3.95
19,A22U G59A U101A,0.375
20,A22U C38A G50U U56A C75G C93U U134A,≤ -4.2
21,A22G U56A C85U,-0.116
22,A22U A37C C96U A142C,-1.63
23,A23C C85A G88A A120U U146G,≤ -4.2
24,A22U A28U U104G,≤ -4.2

row,Variant,polymerase ribozyme fitness (log ratio)
1,A22U A28U A37U G42C C54A C103A,≤ -4.2
2,A22C G65A U104G A107C U127G,≤ -4.2
3,A21U U56A,-0.173
4,A21G C75U A120G,0.879
5,A23U A24U U56A A106C A150U,-3.89
6,A22G U55A G83U C129A,-3.65
7,A22G C32U C103G A147G G152A,≤ -4.2
8,A23U A47G U55A,≤ -4.2
9,A21U G50C U53A,-3.62
10,A23C C72U C87A C96U C105U,≤ -4.2
11,A21U U55A C63U C85U,0.519
12,A21G C54A,-0.617
13,A22G C85U C114A U139G,-3.14
14,A22C A60C G62U,-2.13
15,A22C A89G C95A C103A G124U,-4
16,A21U A26C A52C C54U G62A G68A G83C U139G,≤ -4.2
17,A21G G46U U55A U151G,≤ -4.2
18,A23U C118U,-3.62
19,A21G G42A C93U A110C,≤ -4.2
20,A23U A52C,≤ -4.2
21,A23G C96U,-2.56
22,A21U C27G C36A G117C,-4.02
23,A21U C32U A52G C85A,-4.08
24,A22C C54A G94A A98U,-1.82

row,Variant,polymerase ribozyme fitness (log ratio)
1,A22U U44A U45A A122G G140C G143U U146C,≤ -4.2
2,A21U A24G U61A G81U,≤ -4.2
3,A22U A28U A47C C72G G84U C149A,≤ -4.2
4,A21U A26U A29G C35A G86U,-4.04
5,A21G G84A A137C,-3.28
6,A22U C57A G70C U78A G80A,≤ -4.2
7,A21G C36U A52C A107U U127C,≤ -4.2
8,A21U G84A,0.266
9,A21U C108U,-3.78
10,A23U A29U G50A C69G A89C G112C A120U A122U,≤ -4.2
11,A21U G50C C57A A97G,-3.79
12,A23C A29G C96G U139G,-4.19
13,A21G U56A G67C U77G G88A C99A U109G,≤ -4.2
14,A22U G81A C125A,-0.142
15,A23C G81A A91U G143A,≤ -4.2
16,A22U U55A U56A A97U,-0.631
17,A23C G25A C32A C63U C87A,≤ -4.2
18,A23G G46A C87U C132G,≤ -4.2
19,A23U G48A C87G U104C,≤ -4.2
20,A21U A23U,≤ -4.2
21,A22U G25U C35U C76G G126U U135A,≤ -4.2
22,A22G A47C U55A U61A G92C A142U,≤ -4.2
23,A21G C27U C38A C93G U101A U146C,≤ -4.2
24,A22C A28U G88U,≤ -4.2

row,Variant,polymerase ribozyme fitness (log ratio)
1,A21U C38G G84A G136C,-3.78
2,A22C G25A C93U C118A,≤ -4.2
3,A22U C35A A41C U53G C87U A97C C108U U151A,≤ -4.2
4,A23G C27G A40G U61A C131G G143U,≤ -4.2
5,A22G G92C,0.21
6,A22G G84U G88U A89U,≤ -4.2
7,A23G C76G C87U A119G G140U,≤ -4.2
8,A21U U33C G42A U45G U53A U90A C96U C114G,-3.87
9,A22U A47C U55G G84U C125G,-3.06
10,A22G U53G C54G U55C A73G A91C C105U C116U U127G U135C,≤ -4.2
11,A22C A24U C54A U77A G84U,≤ -4.2
12,A21U U33G U61C G62A A66C C72A G80C C85U A107G,≤ -4.2
13,A22U C87A C99U C103G A142C,≤ -4.2
14,A22C C87U C123G,-0.845
15,A22G C38G C96U A110U U111A,≤ -4.2
16,A23U C76A,-3.84
17,A21G A52G U53A C54U C87U C95A G136A G140U,≤ -4.2
18,A22U C43A G86A U90A,≤ -4.2
19,A22C A26U C36U C54U C85U A98U A106G,≤ -4.2
20,A22U A52C C99U,-1.89
21,A21U C57A C93G A142C,-3.67
22,A23U C51U C76A C96G C103G A115G,≤ -4.2
23,A22U A98G,-0.232
